Measured values from US20250011363A1, “OPTIMIZED SHORTENED PEPTIDE THAT BINDS TO ACETYLCHOLINE RECEPTOR, AND USE THEREOF” (SKINMED CO., LTD., priority 2021, published 2025).

What follows are substances tested against acetylcholine receptor (Homo sapiens, UniProt P02708) (assay: SPR binding affinity (RU) of optimized 5mer/6mer/7mer peptides, Examples 6-7). Settings: SPR, peptides tested at 10 μM; 5mer Top sequence.
Experimental: Based on the frequencies of occurrence of the top 7 amino acids from Table 7 in Example 5, 600 peptides comprising these amino acids (top combinations) and those comprising the 13 less frequently occurring amino acids (bottom combinations) were synthesized for each series of 5mer, 6mer-1, and 6mer-2. The binding affinity of each sequence for the acetylcholine receptor was measured using Surface Plasmon Resonance (SPR) analysis method. The peptides were tested at a concentration of 10 μM. Additionally, the average binding affinities of the top and bottom combinations in each series are depicted in FIGS. 5-7.
Representative peptides identified in Example 6, two in each library, including 5mers (73, 311) and 6mers-1 (43, 210) and 6mers-2 (136, 233), were compared with the pre-optimized 6mer, 5mer-ND, and Synake.

Chain of acetylcholine receptor (P02708 21-457): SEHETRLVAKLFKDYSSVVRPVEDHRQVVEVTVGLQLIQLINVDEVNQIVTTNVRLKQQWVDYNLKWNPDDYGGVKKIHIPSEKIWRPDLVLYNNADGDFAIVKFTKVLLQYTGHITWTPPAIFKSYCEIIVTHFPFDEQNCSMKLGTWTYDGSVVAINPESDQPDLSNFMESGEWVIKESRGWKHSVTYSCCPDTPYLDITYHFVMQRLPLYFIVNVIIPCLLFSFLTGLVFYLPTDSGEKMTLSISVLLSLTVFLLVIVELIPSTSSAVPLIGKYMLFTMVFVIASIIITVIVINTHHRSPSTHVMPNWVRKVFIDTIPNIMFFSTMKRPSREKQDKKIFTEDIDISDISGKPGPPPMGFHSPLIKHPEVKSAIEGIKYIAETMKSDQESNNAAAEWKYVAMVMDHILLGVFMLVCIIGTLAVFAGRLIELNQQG

Substance	Binding affinity [Ru]
5mer-204 (RQFQR)	84
5mer-205 (RWYYR)	75
5mer-206 (KLQLR)	57
5mer-207 (KQVRR)	72
5mer-208 (KLICR)	80
5mer-209 (RGVRR)	78
5mer-210 (KVYYR)	67
5mer-211 (RLYYR)	73
5mer-301 (KWIRK)	64
5mer-302 (RRILK)	70
5mer-303 (KGRYR)	87
5mer-304 (RSVRK)	76
5mer-305 (KRICK)	72
5mer-306 (KSYYR)	74
5mer-307 (KQRCK)	82
5mer-308 (RLRCR)	84
5mer-309 (KVQYR)	70
5mer-310 (KSRQR)	78
5mer-312 (KRYCR)	81
5mer-313 (RSQLK)	75
5mer-314 (RWYTR)	80
5mer-315 (KLFSR)	77
5mer-316 (KQYLR)	73
5mer-317 (RRVQR)	86
5mer-318 (KRVCK)	64
5mer-319 (RVQTR)	74
5mer-320 (RVVQR)	75

Substance	Binding affinity [Ru]
5mer-321 (RSLSR)	68
5mer-322 (RRQSR)	84
5mer-323 (KWYYR)	77
5mer-324 (KSQRR)	58
5mer-325 (KRIQR)	50
5mer-326 (RRFTK)	68
5mer-327 (RVLCR)	86
5mer-328 (RWVLK)	61
5mer-329 (RRFCR)	79
5mer-330 (RWQLR)	86
5mer-331 (RGIQR)	79
5mer-332 (RRYCR)	85
5mer-333 (RVLQR)	67
5mer-334 (KRFYK)	64
5mer-335 (KSLTR)	56
5mer-336 (KSVSR)	83
5mer-337 (KGRSR)	67
5mer-338 (RWILR)	61
5mer-339 (KWVRK)	87
5mer-340 (KGYRR)	51
5mer-341 (RWYRR)	52
5mer-342 (KVYQR)	69
5mer-343 (KSFSR)	60
5mer-344 (KQFQR)	52
5mer-345 (RQQRR)	86
5mer-346 (KGISK)	57
5mer-347 (KRICR)	78

Substance	Binding affinity [Ru]
5mer-348 (KRQTK)	80
5mer-349 (KQVYR)	50
5mer-350 (KSYYK)	59
5mer-351 (KSFSK)	75
5mer-352 (RLVRK)	76
5mer-353 (KSQLK)	59
5mer-354 (RSQTR)	64
5mer-355 (KLLYR)	87
5mer-356 (KQVLR)	65
5mer-357 (RGFRK)	54
5mer-358 (KVRSK)	50
5mer-359 (KRFQK)	79
5mer-360 (RQLCK)	66
5mer-361 (RSYQR)	58
5mer-362 (KQRLK)	62
5mer-363 (KRVRK)	59
5mer-364 (RWITR)	62
5mer-365 (KRRYK)	52
5mer-366 (RQLQK)	52
5mer-367 (RSVQK)	71
5mer-368 (KRIRR)	50
5mer-369 (RGFTR)	84
5mer-370 (KWRRK)	67
5mer-371 (RGISK)	86
5mer-372 (RSVCR)	54

Same assay, conditions: SPR, peptides tested at 10 μM; 5mer Top sequence (top combinations)

Substance	Binding affinity [Ru]
5mer-212 (KQQYK)	64
5mer-213 (RQYTK)	83
5mer-214 (KQQCK)	79
5mer-215 (RQYRR)	79
5mer-216 (KWVRR)	56
5mer-217 (KLQRR)	72
5mer-218 (KVQYK)	80
5mer-219 (KQYTR)	55
5mer-220 (KRILR)	81
5mer-221 (RGRTR)	58
5mer-222 (KWLLR)	86
5mer-223 (KQVRK)	61
5mer-224 (RLQRR)	67
5mer-225 (KRQQK)	51
5mer-226 (RRYTR)	60
5mer-227 (RRQQR)	84
5mer-228 (KRFLK)	53
5mer-229 (KGLTR)	84
5mer-230 (KVLCR)	67
5mer-231 (KGLLK)	60
5mer-232 (KWYTR)	71
5mer-233 (RVYYK)	84
5mer-234 (RQYCR)	62

Substance	Binding affinity [Ru]
5mer-235 (KGYSK)	70
5mer-236 (KRRCK)	81
5mer-237 (RGLRK)	77
5mer-238 (KQVLK)	58
5mer-239 (KRLYR)	61
5mer-240 (KWRYR)	51
5mer-241 (KVRCR)	51
5mer-242 (RGYTK)	64
5mer-243 (KLLSK)	51
5mer-244 (KSVSK)	78
5mer-245 (RQRSK)	62
5mer-246 (KSFTR)	60
5mer-247 (RWYCR)	80
5mer-248 (RWYLK)	63
5mer-249 (RSYCR)	52
5mer-250 (RQFSR)	76
5mer-251 (KRISK)	70
5mer-252 (KQYRK)	53
5mer-253 (RSLYR)	75
5mer-254 (KLLRK)	87
5mer-255 (KQRTR)	82
5mer-256 (RGVCK)	60
5mer-257 (RQFTR)	85

Substance	Binding affinity [Ru]
5mer-258 (KRQYK)	84
5mer-259 (RLIRK)	71
5mer-260 (KVYRR)	57
5mer-261 (RRVLR)	59
5mer-262 (KSRCR)	59
5mer-263 (KQVTR)	80
5mer-264 (KWYRK)	50
5mer-265 (RWQCR)	77
5mer-266 (KSYQK)	66
5mer-267 (KRLLK)	66
5mer-268 (KRYCK)	54
5mer-269 (RLFLR)	85
5mer-270 (RSQQR)	52
5mer-271 (RGRYR)	68
5mer-272 (KGYQR)	83
5mer-273 (RVQSK)	82
5mer-274 (RQVRK)	62
5mer-275 (KVYTR)	64
5mer-276 (RSLRR)	70
5mer-277 (RVFTR)	82
5mer-278 (RWQRR)	66
5mer-279 (RVVTK)	56
5mer-280 (KWILK)	53

Substance	Binding affinity [Ru]
5mer-281 (RGFLK)	58
5mer-282 (RVLTR)	77
5mer-283 (KWVYK)	51
5mer-284 (KQVQR)	52
5mer-285 (KGQLK)	75
5mer-286 (RWFQK)	71
5mer-287 (KRYRR)	68
5mer-288 (KLILK)	73
5mer-289 (RRQYR)	87
5mer-290 (RGYYR)	57
5mer-291 (RWFTR)	72
5mer-292 (KLVCK)	59
5mer-293 (RQYYR)	83
5mer-294 (KQYYK)	50
5mer-295 (RGRCR)	52
5mer-296 (KWISK)	55
5mer-297 (RSLRK)	81
5mer-298 (KSIYR)	75
5mer-299 (KGRRK)	62
5mer-300 (RQYRK)	81
